From article PMC4039082 (Science (New York, N.Y.), 2013)

T1: Tfa1 subunit of TFIIE (S. cerevisiae, UniProt P36100 1-482)
T1 sequence (looked up): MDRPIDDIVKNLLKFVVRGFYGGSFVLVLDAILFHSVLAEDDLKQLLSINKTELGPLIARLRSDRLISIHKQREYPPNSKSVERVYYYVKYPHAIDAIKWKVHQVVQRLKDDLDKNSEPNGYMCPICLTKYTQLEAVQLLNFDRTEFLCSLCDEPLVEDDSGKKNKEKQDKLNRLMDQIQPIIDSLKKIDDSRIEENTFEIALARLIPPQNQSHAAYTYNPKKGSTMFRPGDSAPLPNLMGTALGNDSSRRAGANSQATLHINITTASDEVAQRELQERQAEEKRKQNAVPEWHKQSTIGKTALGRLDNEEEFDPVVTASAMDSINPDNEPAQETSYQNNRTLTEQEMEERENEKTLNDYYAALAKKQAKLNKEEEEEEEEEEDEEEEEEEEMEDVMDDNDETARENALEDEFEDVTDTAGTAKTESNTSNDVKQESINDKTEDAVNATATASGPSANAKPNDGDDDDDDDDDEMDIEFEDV

B1: Tfa2 subunit of TFIIE (natural protein, S. cerevisiae, UniProt P36145 1-328, looked up)
chain: MSKNRDPLLANLNAFKSKVKSAPVIAPAKVGQKKTNDTVITIDGNTRKRTASERAQENTLNSAKNPVLVDIKKEAGSNSSNAISLDDDDDDEDFGSSPSKKVRPGSIAAAALQANQTDISKSHDSSKLLWATEYIQKKGKPVLVNELLDYLSMKKDDKVIELLKKLDRIEFDPKKGTFKYLSTYDVHSPSELLKLLRSQVTFKGISCKDLKDGWPQCDETINQLEEDSKILVLRTKKDKTPRYVWYNSGGNLKCIDEEFVKMWENVQLPQFAELPRKLQDLGLKPASVDPATIKRQTKRVEVKKKRQRKGKITNTHMTGILKDYSHRV
B2: Toa2 subunit of TFIIA (natural protein, S. cerevisiae, UniProt P32774 1-122, looked up)
chain: MAVPGYYELYRRSTIGNSLVDALDTLISDGRIEASLAMRVLETFDKVVAETLKDNTQSKLTVKGNLDTYGFCDDVWTFIVKNCQVTVEDSHRDASQNGSGDSQSVISVDKLRIVACNSKKSE
B3: Tfg1 subunit of TFIIF (natural protein, S. cerevisiae, UniProt P41895 1-735, looked up)
chain: MSRRNPPGSRNGGGPTNASPFIKRDRMRRNFLRMRMGQNGSNSSSPGVPNGDNSRGSLVKKDDPEYAEEREKMLLQIGVEADAGRSNVKVKDEDPNEYNEFPLRAIPKEDLENMRTHLLKFQSKKKINPVTDFHLPVRLHRKDTRNLQFQLTRAEIVQRQKEISEYKKKAEQERSTPNSGGMNKSGTVSLNNTVKDGSQTPTVDSVTKDNTANGVNSSIPTVTGSSVPPASPTTVSAVESNGLSNGSTSAANGLDGNASTANLANGRPLVTKLEDAGPAEDPTKVGMVKYDGKEVTNEPEFEEGTMDPLADVAPDGGGRAKRGNLRRKTRQLKVLDENAKKLRFEEFYPWVMEDFDGYNTWVGSYEAGNSDSYVLLSVEDDGSFTMIPADKVYKFTARNKYATLTIDEAEKRMDKKSGEVPRWLMKHLDNIGTTTTRYDRTRRKLKAVADQQAMDEDDRDDNSEVELDYDEEFADDEEAPIIDGNEQENKESEQRIKKEMLQANAMGLRDEEAPSENEEDELFGEKKIDEDGERIKKALQKTELAALYSSDENEINPYLSESDIENKENESPVKKEEDSDTLSKSKRSSPKKQQKKATNAHVHKEPTLRVKSIKNCVIILKGDKKILKSFPEGEWNPQTTKAVDSSNNASNTVPSPIKQEEGLNSTVAEREETPAPTITEKDIIEAIGDGKVNIKEFGKFIRRKYPGAENKKLMFAIVKKLCRKVGNDHMELKKE
B4: Ssl2 helicase subunit of TFIIH (natural protein, S. cerevisiae, UniProt Q00578 1-843, looked up)
chain: MTDVEGYQPKSKGKIFPDMGESFFSSDEDSPATDAEIDENYDDNRETSEGRGERDTGAMVTGLKKPRKKTKSSRHTAADSSMNQMDAKDKALLQDTNSDIPADFVPDSVSGMFRSHDFSYLRLRPDHASRPLWISPSDGRIILESFSPLAEQAQDFLVTIAEPISRPSHIHEYKITAYSLYAAVSVGLETDDIISVLDRLSKVPVAESIINFIKGATISYGKVKLVIKHNRYFVETTQADILQMLLNDSVIGPLRIDSDHQVQPPEDVLQQQLQQTAGKPATNVNPNDVEAVFSAVIGGDNEREEEDDDIDAVHSFEIANESVEVVKKRCQEIDYPVLEEYDFRNDHRNPDLDIDLKPSTQIRPYQEKSLSKMFGNGRARSGIIVLPCGAGKTLVGITAACTIKKSVIVLCTSSVSVMQWRQQFLQWCTLQPENCAVFTSDNKEMFQTESGLVVSTYSMVANTRNRSHDSQKVMDFLTGREWGFIILDEVHVVPAAMFRRVVSTIAAHAKLGLTATLVREDDKIGDLNFLIGPKLYEANWMELSQKGHIANVQCAEVWCPMTAEFYQEYLRETARKRMLLYIMNPTKFQACQFLIQYHERRGDKIIVFSDNVYALQEYALKMGKPFIYGSTPQQERMNILQNFQYNDQINTIFLSKVGDTSIDLPEATCLIQISSHYGSRRQEAQRLGRILRAKRRNDEGFNAFFYSLVSKDTQEMYYSTKRQAFLVDQGYAFKVITHLHGMENIPNLAYASPRERRELLQEVLLKNEEAAGIEVGDDADNSVGRGSNGHKRFKSKAVRGEGSLSGLAGGEDMAYMEYSTNKNKELKEHHPLIRKMYYKNLKK
B5: TFIIB (natural protein, S. cerevisiae, UniProt P29055 1-345, looked up)
chain: MMTRESIDKRAGRRGPNLNIVLTCPECKVYPPKIVERFSEGDVVCALCGLVLSDKLVDTRSEWRTFSNDDHNGDDPSRVGEASNPLLDGNNLSTRIGKGETTDMRFTKELNKAQGKNVMDKKDNEVQAAFAKITMLCDAAELPKIVKDCAKEAYKLCHDEKTLKGKSMESIMAASILIGCRRAEVARTFKEIQSLIHVKTKEFGKTLNIMKNILRGKSEDGFLKIDTDNMSGAQNLTYIPRFCSHLGLPMQVTTSAEYTAKKCKEIKEIAGKSPITIAVVSIYLNILLFQIPITAAKVGQTLQVTEGTIKSGYKILYEHRDKLVDPQLIANGVVSLDNLPGVEKK
B6: Ssl1 subunit of core TFIIH (natural protein, S. cerevisiae, UniProt Q04673 1-461, looked up)
chain: MAPVVISESEEDEDRVAITRRTKRQVHFDGEGDDRVDQQQQQHSSSHRDRDKHVQRKKKKRLSNRNLQGSNGGYAWEDEIKRSWDLVKVDDEGDMASLVASIVEARKKRTAKKNITPYQRGIIRSLILTLDCSEAMLEKDLRPNRHAMIIQYAIDFVHEFFDQNPISQMGIIIMRNGLAQLVSQVSGNPQDHIDALKSIRKQEPKGNPSLQNALEMARGLLLPVPAHCTREVLIVFGSLSTTDPGDIHQTIDSLVSEKIRVKVLGLSAQVAICKELCKATNYGDESFYKILLDETHLKELFNEAVTPLPVNKINKGFTLVKMGFPTRIFEDTPTFCSCHSKLVYGGYFCPNCHSKVCSLPTVCPCCDLMLILSTHLARSYHHLMPLKTFAEVPTTEKFRSEDCFSCQSRFPILKNHKNGKLLTSSRYRCEDCKQEFCVDCDVFIHEILHNCPGCESKPVIT
B7: Tfg2 subunit of TFIIF (natural protein, S. cerevisiae, UniProt P41896 1-400, looked up)
chain: MSSGSAGAPALSNNSTNSVAKEKSGNISGDEYLSQEEEVFDGNDIENNETKVYEESLDLDLERSNRQVWLVRLPMFLAEKWRDRNNLHGQELGKIRINKDGSKITLLLNENDNDSIPHEYDLELTKKVVENEYVFTEQNLKKYQQRKKELEADPEKQRQAYLKKQEREEELKKKQQQQKRRNNRKKFNHRVMTDRDGRDRYIPYVKTIPKKTAIVGTVCHECQVMPSMNDPNYHKIVEQRRNIVKLNNKERITTLDETVGVTMSHTGMSMRSDNSNFLKVGREKAKSNIKSIRMPKKEILDYLFKLFDEYDYWSLKGLKERTRQPEAHLKECLDKVATLVKKGPYAFKYTLRPEYKKLKEEERKATLGELADEQTGSAGDNAQGDAEADLEDEIEMEDVV

Tests used:
Experiment in all cases: cross-linking
[1] = target: B7
[2] = target: T1, Tfa1 subunit of TFIIE
[3] = target: Rpb2 subunit of pol II (S. cerevisiae, UniProt P08518 1-1224)
Chain of Rpb2 subunit of pol II (P08518 whole entry): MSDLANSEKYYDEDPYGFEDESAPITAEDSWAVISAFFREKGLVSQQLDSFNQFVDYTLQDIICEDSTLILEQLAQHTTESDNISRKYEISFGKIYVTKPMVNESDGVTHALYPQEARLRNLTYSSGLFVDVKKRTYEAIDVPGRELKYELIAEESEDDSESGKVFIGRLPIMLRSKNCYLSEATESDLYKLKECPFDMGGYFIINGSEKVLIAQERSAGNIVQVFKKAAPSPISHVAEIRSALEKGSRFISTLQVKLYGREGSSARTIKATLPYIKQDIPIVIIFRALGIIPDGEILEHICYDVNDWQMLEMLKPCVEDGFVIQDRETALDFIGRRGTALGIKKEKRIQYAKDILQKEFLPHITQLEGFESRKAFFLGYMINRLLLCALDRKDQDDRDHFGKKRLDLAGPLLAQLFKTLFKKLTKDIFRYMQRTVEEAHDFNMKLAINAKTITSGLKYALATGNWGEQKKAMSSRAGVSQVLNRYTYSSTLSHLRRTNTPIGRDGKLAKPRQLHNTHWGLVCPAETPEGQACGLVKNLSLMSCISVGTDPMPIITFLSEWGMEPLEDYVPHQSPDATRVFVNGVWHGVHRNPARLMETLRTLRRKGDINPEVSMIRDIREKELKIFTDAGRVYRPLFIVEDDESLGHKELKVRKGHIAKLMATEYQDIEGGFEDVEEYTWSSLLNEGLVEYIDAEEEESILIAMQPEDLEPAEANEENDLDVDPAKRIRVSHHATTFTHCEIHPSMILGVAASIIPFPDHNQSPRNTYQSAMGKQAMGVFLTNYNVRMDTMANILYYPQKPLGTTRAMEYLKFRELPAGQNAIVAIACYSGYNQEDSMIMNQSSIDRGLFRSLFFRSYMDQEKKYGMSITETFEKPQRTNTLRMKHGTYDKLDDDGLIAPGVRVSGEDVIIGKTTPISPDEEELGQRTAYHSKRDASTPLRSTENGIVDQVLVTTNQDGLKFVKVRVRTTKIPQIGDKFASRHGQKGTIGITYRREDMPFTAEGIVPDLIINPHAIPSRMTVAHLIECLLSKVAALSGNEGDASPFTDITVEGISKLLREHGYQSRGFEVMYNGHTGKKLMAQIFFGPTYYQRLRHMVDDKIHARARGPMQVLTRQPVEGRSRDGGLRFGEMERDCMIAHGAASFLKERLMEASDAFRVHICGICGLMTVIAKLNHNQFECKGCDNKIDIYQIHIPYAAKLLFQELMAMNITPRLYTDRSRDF

[4] = target: Rpb1 subunit of RNA polymerase II (S. cerevisiae, UniProt P04050 1-1733)
Chain of Rpb1 subunit of RNA polymerase II (P04050 whole entry): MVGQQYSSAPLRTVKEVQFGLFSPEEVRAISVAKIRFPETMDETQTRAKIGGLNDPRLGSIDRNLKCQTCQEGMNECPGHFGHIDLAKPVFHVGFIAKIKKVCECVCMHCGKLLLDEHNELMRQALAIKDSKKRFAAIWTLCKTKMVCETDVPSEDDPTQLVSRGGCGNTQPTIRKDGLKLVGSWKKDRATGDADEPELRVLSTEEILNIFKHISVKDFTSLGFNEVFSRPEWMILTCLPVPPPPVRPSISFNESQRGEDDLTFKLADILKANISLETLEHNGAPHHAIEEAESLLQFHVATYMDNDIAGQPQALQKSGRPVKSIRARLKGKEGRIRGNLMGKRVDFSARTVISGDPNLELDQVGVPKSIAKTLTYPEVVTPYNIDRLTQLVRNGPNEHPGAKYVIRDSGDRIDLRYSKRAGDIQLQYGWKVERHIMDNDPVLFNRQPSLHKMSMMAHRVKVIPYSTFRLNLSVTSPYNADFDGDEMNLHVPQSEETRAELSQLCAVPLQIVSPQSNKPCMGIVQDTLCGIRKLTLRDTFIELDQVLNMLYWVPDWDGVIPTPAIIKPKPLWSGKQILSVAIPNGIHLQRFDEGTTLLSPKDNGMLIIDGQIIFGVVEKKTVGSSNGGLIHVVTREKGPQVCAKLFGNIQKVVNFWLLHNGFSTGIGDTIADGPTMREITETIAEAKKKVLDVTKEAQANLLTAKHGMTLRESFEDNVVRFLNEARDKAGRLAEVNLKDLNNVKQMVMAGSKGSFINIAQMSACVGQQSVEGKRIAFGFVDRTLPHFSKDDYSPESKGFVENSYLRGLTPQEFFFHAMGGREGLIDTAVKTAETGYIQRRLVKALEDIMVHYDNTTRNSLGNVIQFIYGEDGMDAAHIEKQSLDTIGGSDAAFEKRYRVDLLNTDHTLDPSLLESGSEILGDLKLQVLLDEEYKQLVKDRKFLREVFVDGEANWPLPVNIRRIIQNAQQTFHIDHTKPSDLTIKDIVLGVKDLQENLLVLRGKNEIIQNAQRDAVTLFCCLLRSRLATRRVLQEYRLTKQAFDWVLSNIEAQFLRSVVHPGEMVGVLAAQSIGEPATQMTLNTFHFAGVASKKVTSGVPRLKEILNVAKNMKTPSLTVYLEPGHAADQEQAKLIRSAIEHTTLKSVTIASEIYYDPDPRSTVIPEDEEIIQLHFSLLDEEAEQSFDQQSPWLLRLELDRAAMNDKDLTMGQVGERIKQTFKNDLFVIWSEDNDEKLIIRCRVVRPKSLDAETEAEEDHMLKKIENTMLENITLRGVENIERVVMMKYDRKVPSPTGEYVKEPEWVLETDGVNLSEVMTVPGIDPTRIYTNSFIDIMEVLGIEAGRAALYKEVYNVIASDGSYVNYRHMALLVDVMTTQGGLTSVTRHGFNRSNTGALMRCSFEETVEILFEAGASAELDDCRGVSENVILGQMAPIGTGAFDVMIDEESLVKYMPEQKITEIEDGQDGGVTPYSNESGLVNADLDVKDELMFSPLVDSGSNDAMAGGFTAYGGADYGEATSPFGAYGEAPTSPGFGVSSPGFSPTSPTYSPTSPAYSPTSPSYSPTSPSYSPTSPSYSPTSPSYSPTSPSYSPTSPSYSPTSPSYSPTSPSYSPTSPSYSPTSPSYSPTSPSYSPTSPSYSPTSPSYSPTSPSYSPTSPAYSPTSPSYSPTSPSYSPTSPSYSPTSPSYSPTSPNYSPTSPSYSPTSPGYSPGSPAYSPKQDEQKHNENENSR

[5] = target: B4

Binder: B1
binding result [1]: binds
binding result [2]: binds

Binder: B2
binding result [1]: binds

Binder: B3
binding result [3]: binds

Binder: B4
binding result [4]: binds

Binder: B5
binding result [1]: binds

Binder: B6
binding result [2]: binds

Binder: B7
binding result [3]: binds
binding result [5]: binds
